Results published in article PMC4937327.
Read-outs that look alike come from different tables or passages of the source.

Tests used:
[1] = target: PtAUREO1a bZIP-A′α-LOV-Jα functional module (residues D145-D378) (Phaeodactylum tricornutum); experiment: SAXS
[2] = target: PtAUREO1a bZIP-A′α-LOV-Jα functional module (residues D145-D378) (Phaeodactylum tricornutum); experiment: SEC
[3] = target: PtAUREO1a bZIP-A′α-LOV-Jα functional module (residues D145-D378) (Phaeodactylum tricornutum); experiment: SEC; remark: listed apart in the source
[4] = target: PtAUREO1a bZIP-A′α-LOV-Jα functional module (residues D145-D378) (Phaeodactylum tricornutum); experiment: MST
[5] = target: PtAUREO1c (aureochrome 1c from Phaeodactylum tricornutum), full length (Phaeodactylum tricornutum); experiment: MST
[6] = target: PtAUREO1a bZIP-A′α-LOV-Jα functional module (residues D145-D378) (Phaeodactylum tricornutum); experiment: MST; remark: listed apart in the source

Substance	stoichiometry N [1]	stoichiometry N [2]	stoichiometry N [3]	Kd [4]	Kd [5]	Kd [6]
PtAUREO1a bZIP-A′α-LOV-Jα functional module (residues D145-D378) (domain or fragment)	2	2	2	240 to 280 nM	450 nM	
PtAUREO1a (aureochrome 1a from Phaeodactylum tricornutum), full length (natural protein)					240 nM	
dsDNA/bZIP-A′α-LOV-Jα complex (PtAUREO1a bZIP-A′α-LOV-Jα dimer bound to dsDNA)				800 nM		2600 nM
